B1: IL-20RA/IL-20RB heterodimeric receptor (receptor)
chain 1: VPCVSGGLPKPANITFLSINMKNVLQWTPPEGLQGVKVTYTVQYFIYGQKKWLNKSECRNINRTYCDLSAETSDYEHQYYAKVKAIWGTKCSKWAESGRFYPFLETQIGPPEVALTTDEKSISVVLTAPEKWKRNPEDLPVSMQQIYSNLKYNVSVLNTKSNRTWSQCVTNHTLVLTWLEPNTLYCVHVESFVPGPPRRAQPSEKQCARTLKDQSSEFKAKIIFWYVLPISITVFLFSVMGYSIYRYIHVGKEKHPANLILIYGNEFDKRFFVPAEKIVINFITLNISDDSKISHQDMSLLGKSSDVSSLNDPQPSGNLRPPQEEEEVKHLGYASHLMEIFCDSEENTEGTSFTQQESLSRTIPPDKTVIEYEYDVRTTDICAGPEEQELSLQEEVSTQGTLLESQAALAVLGPQTLQYSYTPQLQDLDPLAQEHTDSEEGPEEEPSTTLVDWDPQTGRLCIPSLSSFDQDSEGCEPSEGDGLGEEGLLSRLYEEPAPDRPPGENETYLMQFMEEWGLYVQMEN
chain 2: DEVAILPAPQNLSVLSTNMKHLLMWSPVIAPGETVYYSVEYQGEYESLYTSHIWIPSSWCSLTEGPECDVTDDITATVPYNLRVRATLGSQTSAWSILKHPFNRNSTILTRPGMEITKDGFHLVIELEDLGPQFEFLVAYWRREPGAEEHVKMVRSGGIPVHLETMEPGAAYCVKAQTFVKAIGRYSAFSQTECVEVQGEAIPLVLALFAFVGFMLILVVVPLFVWKMGRLLQYSCCPVVVLPDTLKITNSPQKLISCRREEVDACATAVMSPEELLRAWIS

How the values were obtained:
[1] = biological target: IL-20RA/IL-20RB heterodimeric receptor (human)
[2] = biological target: IL-20RA/IL-20RB heterodimeric receptor (human); remark: listed apart in the source
[3] = biological target: IL-20RA/IL-20RB heterodimeric receptor (human); remark: listed apart in the source
[4] = biological target: IL-20RA/IL-20RB heterodimeric receptor (human); remark: listed apart in the source
[5] = biological target: IL-20RA/IL-20RB heterodimeric receptor (human); remark: listed apart in the source
[6] = biological target: T1, 125I-labeled IL-20 (Homo sapiens (Human), UniProt Q9NYY1, 125I-labeled); assay: radiolabeled ligand binding to BHK cells stably transfected with IL-20RA and IL-20RB
T1 sequence: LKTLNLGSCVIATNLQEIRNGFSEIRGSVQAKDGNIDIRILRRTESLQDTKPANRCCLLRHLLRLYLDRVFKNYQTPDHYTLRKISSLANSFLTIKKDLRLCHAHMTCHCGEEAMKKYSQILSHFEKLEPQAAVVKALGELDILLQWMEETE
Procedure: The specificity and affinity of IL-20 for its receptor was determined using BHK cells stably transfected with IL-20RA, IL-20RB or both receptor subunits. […] Binding of ¹²⁵I-labeled IL-20 was eliminated in the presence of 100-fold excess of unlabeled IL-20 but not with 100-fold excess of the unrelated cytokine, IL-21.

Molecule	half maximal response, proliferation of BaF3 cells co-transfected with IL-20RA and IL-20RB [1] [pM]	proliferation of BaF3 cells co-transfected with IL-20RA and IL-20RB [1] [pM]	half maximal response, SRE/STAT luciferase reporter in HaCaT cells [2] [nM]	half-maximal response, luciferase reporter in HaCaT cells, IL-20 in combination with a submaximal dose of IL-1beta [3] [nM]	half-maximal response, STAT-luciferase in BHK cells transfected with both receptor subunits [4] [pM]	half-maximal IL-20 concentration, STAT3 nuclear translocation in HaCaT cells [5] [nM]	Kd [6] [nM]
Interleukin-20 (IL-20) (from UniProt Q9NYY1) (ligand)	3.4	1.1	2.3	0.5	5.7	7	–
B1	–	–	–	–	–	–	~1.5
